One may read the Kd as the constant that tells how readily two partners part at equilibrium.

In series [1] the target is T1, PrfA A218G (Listeria monocytogenes, UniProt P22262 1-237, A218G). The experiment in a line: SPR. To be noted: protein: recombinant; tags: His6 removed by TEV, leaves N-terminal GA; chain copies: 2; label: 5'-biotin on strand 1; blunt.
The target of series [2] is T2, PrfA L140F (Listeria monocytogenes, UniProt P22262 1-237, L140F). The experiment in a line: SPR. To be noted: protein: recombinant; tags: His6 removed by TEV, leaves N-terminal GA; chain copies: 2; label: 5'-biotin on strand 1; blunt.
Series [3] addresses PrfA WT (Listeria monocytogenes, UniProt P22262 1-237). Put plainly: SPR. To be noted: protein: recombinant; tags: His6-TEV vector pET His1a; chain copies: 2; label: 5'-biotin on strand 1; blunt.
The target of series [4] is T3, PrfA L140H (Listeria monocytogenes, UniProt P22262 1-237, L140H). Put plainly: SPR. To be noted: protein: recombinant; tags: His6 removed by TEV, leaves N-terminal GA; chain copies: 2; label: 5'-biotin on strand 1; blunt.
In series [5] the target is T1, PrfA A218G. The experiment in a line: crystal structure; PDB probably one of 6QWF/6QWH/6QWK/6QWM; assignment not in material. As to conditions: protein: recombinant; tags: His6 removed by TEV, leaves N-terminal GA; chain copies: 2; blunt.
Series [6] deals with T2, PrfA L140F. The series is described as above. To be noted: protein: recombinant; tags: His6 removed by TEV, leaves N-terminal GA; chain copies: 2; blunt.
The target of series [7] is T3, PrfA L140H. The series is described as above. To be noted: protein: recombinant; tags: His6 removed by TEV, leaves N-terminal GA; chain copies: 2; blunt.

B1: hpt promoter 40 bp (dsDNA)
DNA 1: TTTTGTTTTCTGCATGATAACAAGTGTTAATGACGGAAAG
DNA 2: CTTTCCGTCATTAACACTTGTTATCATGCAGAAAACAAAA
Consider B1, for which the Kd in series [1] stood at 55 nM; in series [2], 270 nM; in series [3], 1040 nM; in series [4], 210 nM.

B2: hly PrfA box 30 bp (dsDNA)
DNA 1: TTGAGGCATTAACATTTGTTAACGACGATA
DNA 2: TATCGTCGTTAACAAATGTTAATGCCTCAA
Take B2: the binding result in series [5], in series [6] and in series [7] was “binds” throughout.

B3: actA promoter 40 bp (dsDNA)
DNA 1: AGTTGGGGTTAACTGATTAACAAATGTTAGAGAAAAATTA
DNA 2: TAATTTTTCTCTAACATTTGTTAATCAGTTAACCCCAACT
Turning to B3, the Kd in series [1] turned out to be 27 nM; in series [2] it was 95 nM; in series [3] it was 690 nM; in series [4], 85 nM.

B4: hly promoter 40 bp (dsDNA)
DNA 1: CTTTTATGTTGAGGCATTAACATTTGTTAACGACGATAAA
DNA 2: TTTATCGTCGTTAACAAATGTTAATGCCTCAACATAAAAG
With B4, the Kd in series [1] was determined as 4 nM; in series [2], 15 nM; in series [3], 110 nM; in series [4] it was 10 nM.

For the origin of these results see PMC7221254.
